The target of assay [1] is carcinoembryonic antigen (CEA) on LS174T-CEA+ human colon carcinoma cells (human) (UniProt P06731). Description: flow cytometry on live LS174T-CEA+ cells, detected with Qdot655SA; percent positive staining. Background: In flow cytometry, cells or beads pass a laser one at a time.
Assay [2] deals with streptavidin agarose beads (ImmunoPure streptavidin coated beads, Pierce) (UniProt P22629). The experiment in a line: pull-down of 3.5 ug purified protein on streptavidin agarose beads, Western blot with SA HRP. A general note: In western blotting, separated proteins are transferred to a membrane and probed.
Assay [3] addresses carcinoembryonic antigen (CEA) on LS174T-CEA+ human colon carcinoma cells (human) (UniProt P06731). Description: flow cytometry on live LS174T-CEA+ cells, detected with Alexa Fluor 488 streptavidin; percent positive staining.
The target in assay [4] is streptavidin agarose beads (ImmunoPure streptavidin coated beads, Pierce) (UniProt P22629). The experiment in a line: pull-down on streptavidin agarose beads, Western blot.

UniProt P22629, sequence (P22629 37-163 limits assumed): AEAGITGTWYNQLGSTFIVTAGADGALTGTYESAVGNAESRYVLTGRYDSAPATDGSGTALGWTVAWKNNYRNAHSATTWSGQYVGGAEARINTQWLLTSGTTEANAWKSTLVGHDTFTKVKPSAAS
UniProt P06731, sequence (P06731 35-702): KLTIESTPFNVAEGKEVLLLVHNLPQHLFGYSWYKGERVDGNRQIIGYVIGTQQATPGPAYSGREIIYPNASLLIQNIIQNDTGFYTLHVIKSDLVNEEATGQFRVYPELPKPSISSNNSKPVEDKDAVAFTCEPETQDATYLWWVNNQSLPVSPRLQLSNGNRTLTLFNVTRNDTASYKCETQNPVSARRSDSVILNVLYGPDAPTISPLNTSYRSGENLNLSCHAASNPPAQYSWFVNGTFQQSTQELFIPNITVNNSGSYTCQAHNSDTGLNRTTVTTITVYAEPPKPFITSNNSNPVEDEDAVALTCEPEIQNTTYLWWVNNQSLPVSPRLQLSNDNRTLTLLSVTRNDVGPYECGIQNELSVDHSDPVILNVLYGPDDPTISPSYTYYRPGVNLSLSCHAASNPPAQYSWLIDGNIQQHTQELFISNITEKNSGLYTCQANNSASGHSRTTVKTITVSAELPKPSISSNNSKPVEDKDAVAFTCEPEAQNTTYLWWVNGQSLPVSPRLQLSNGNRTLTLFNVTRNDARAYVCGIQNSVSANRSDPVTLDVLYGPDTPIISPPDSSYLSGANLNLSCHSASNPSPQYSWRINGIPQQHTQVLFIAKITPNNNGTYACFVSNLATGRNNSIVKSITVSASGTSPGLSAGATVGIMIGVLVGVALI

Take “Db-BD123 (biotinylated anti-CEA T84.66 diabody fused to the 123 aa biotin acceptor domain of P. shermanii)”: in assay [1], the LS174T binding (%), Qdot streptavidin came to 17.7%. The substance also gave a Binding with streptavidin agarose (%) in assay [2] of 95%. Also, the LS174T binding (%), Streptavidin Alexa in assay [3] is 11.7%.
“Db-BP15-His (biotinylated anti-CEA T84.66 diabody with 15 aa biotin acceptor peptide followed by 6xHis tag)” displayed an LS174T binding (%), Qdot streptavidin in assay [1] of 41%. The substance also yielded a percent unbound in assay [4] of 10%. The Binding with streptavidin agarose (%) in assay [2] amounted to 90%. Besides, the LS174T binding (%), Streptavidin Alexa in assay [3] is 56%.
